Data from article PMC5967604.

Legend:
[1] = biological target: OSM-3G444E^Halo (C. elegans) (UniProt P46873); experiment: single-molecule colocalisation of differentially labelled proteins
OSM-3^SNAP (C. elegans) = OSM-3^SNAP (C. elegans) (UniProt P46873); experiment: as above

Q: “QCC with GFP-tagged IFT-52(OSM-6), G5EDF6 1-472; Q0G838 1-471; G5ED37 1-820; Q8I7G4 1-656” was tested. Which colocalisation efficiency [1] did it give?
A: 85%

Q: What about the colocalisation efficiency (OSM-3^SNAP (C. elegans)) of the same substance?
A: 81%
